Experimental data reported in article PMC2756588.

T1: Abp1, P15891
T1 sequence (P15891 535-592, looked up): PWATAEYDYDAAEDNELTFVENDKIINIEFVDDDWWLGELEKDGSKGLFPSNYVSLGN

T2: Bbc1, P47068
T2 sequence (P47068 1-78, looked up): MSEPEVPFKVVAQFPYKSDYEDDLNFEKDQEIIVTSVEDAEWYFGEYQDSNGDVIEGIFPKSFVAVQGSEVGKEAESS

T3: Boi1, P38041
T3 sequence (P38041 1-86, looked up): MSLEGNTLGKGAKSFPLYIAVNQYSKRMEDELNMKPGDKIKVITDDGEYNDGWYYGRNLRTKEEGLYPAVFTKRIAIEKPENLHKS

T4: Boi2, P39969
T4 sequence (P39969 32-116, looked up): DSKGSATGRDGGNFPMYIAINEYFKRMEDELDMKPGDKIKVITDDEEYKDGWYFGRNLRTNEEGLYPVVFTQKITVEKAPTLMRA

T5: Bud14, P27637
T5 sequence (P27637 247-328, looked up): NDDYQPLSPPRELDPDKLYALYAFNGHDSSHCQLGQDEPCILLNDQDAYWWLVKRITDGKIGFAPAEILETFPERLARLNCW

T6: Bzz1-1, P38822
T6 sequence (P38822 478-572, looked up): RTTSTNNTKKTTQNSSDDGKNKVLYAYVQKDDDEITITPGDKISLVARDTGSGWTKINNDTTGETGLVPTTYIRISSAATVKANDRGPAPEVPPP

T7: Bzz1-2, P38822
T7 sequence (P38822 568-633, looked up): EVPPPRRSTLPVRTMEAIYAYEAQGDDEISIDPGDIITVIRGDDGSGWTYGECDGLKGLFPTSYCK

T8: Cdc25, P04821
T8 sequence (P04821 50-136, looked up): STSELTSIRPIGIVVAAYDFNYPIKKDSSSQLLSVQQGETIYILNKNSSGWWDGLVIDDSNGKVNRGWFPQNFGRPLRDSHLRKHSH

T9: Cyk3, Q07533
T9 sequence (Q07533 1-83, looked up): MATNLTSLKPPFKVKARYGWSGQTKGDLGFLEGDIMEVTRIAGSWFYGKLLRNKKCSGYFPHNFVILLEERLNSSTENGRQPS

T10: Fus1, P11710
T10 sequence (P11710 432-512, looked up): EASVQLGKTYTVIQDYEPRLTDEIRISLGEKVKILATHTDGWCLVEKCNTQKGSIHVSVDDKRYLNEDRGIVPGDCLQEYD

T11: Hof1, Q05080
T11 sequence (Q05080 590-669, looked up): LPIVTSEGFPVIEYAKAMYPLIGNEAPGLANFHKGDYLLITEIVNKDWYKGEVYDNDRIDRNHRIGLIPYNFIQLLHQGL

T12: Hse1, P38753
T12 sequence (P38753 208-285, looked up): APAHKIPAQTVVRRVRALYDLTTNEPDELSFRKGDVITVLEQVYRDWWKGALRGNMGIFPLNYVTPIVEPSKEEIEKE

T13: Lsb1, P53281
T13 sequence (P53281 45-122, looked up): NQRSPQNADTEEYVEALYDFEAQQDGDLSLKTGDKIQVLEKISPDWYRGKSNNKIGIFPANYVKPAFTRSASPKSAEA

T14: Lsb3, P43603
T14 sequence (P43603 385-451, looked up): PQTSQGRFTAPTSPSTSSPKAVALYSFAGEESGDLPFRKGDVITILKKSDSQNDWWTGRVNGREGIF

T15: Lsb4, P32793
T15 sequence (P32793 402-468, looked up): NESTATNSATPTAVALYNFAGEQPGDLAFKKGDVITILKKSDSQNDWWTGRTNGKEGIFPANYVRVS

T16: Myo5, Q04439
T16 sequence (Q04439 1072-1160, looked up): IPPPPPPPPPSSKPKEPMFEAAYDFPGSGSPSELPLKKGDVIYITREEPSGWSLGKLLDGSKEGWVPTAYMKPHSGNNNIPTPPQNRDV

T17: Nbp2, Q12163
T17 sequence (Q12163 103-180, looked up): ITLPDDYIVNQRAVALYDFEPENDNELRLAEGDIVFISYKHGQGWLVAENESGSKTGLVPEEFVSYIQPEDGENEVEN

T18: Pex13, P80667
T18 sequence (P80667 295-386, looked up): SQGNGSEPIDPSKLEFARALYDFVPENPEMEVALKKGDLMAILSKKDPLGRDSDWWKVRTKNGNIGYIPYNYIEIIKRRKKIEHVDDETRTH

T19: Pin3, Q06449
T19 sequence (Q06449 53-122, looked up): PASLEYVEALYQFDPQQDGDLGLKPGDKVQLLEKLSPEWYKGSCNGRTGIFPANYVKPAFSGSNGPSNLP

T20: Sla1-2, P32790
T20 sequence (P32790 60-140, looked up): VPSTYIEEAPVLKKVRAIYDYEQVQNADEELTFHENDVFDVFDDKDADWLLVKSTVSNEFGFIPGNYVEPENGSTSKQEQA

T21: Sla1-3, P32790
T21 sequence (P32790 344-424, looked up): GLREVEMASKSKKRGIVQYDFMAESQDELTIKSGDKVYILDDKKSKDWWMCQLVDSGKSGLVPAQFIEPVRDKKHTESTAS


molecular target: T1, Abp1, P15891; experiment: SPOT array; conditions: median of control spots 935

SPOT intensity	Binder
231	IRMPSNPALPKKLLN
42	QPQRTAPKPPISAPR
102	STPQTMRQAPKRPDA

molecular target: T2, Bbc1, P47068; experiment: SPOT array; conditions: median of control spots 796

SPOT intensity	Binder
2	IRMPSNPALPKKLLN
55	QPQRTAPKPPISAPR
8	STPQTMRQAPKRPDA

molecular target: Bem1-1, P29366; experiment: SPOT array; conditions: median of control spots 4282
Sequence (P29366 55-141): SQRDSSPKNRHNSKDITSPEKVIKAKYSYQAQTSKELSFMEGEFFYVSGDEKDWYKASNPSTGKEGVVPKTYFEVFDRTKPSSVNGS

SPOT intensity	Binder
0	IRMPSNPALPKKLLN
0	QPQRTAPKPPISAPR
0	STPQTMRQAPKRPDA

molecular target: Bem1-2, P29366; experiment: SPOT array; conditions: median of control spots 4347
Sequence (P29366 139-227): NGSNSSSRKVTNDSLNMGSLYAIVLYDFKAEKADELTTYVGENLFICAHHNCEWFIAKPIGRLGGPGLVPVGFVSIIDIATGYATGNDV

SPOT intensity	Binder
0	IRMPSNPALPKKLLN
45	QPQRTAPKPPISAPR
2	STPQTMRQAPKRPDA

molecular target: T3, Boi1, P38041; experiment: SPOT array; conditions: median of control spots 1162

SPOT intensity	Binder
0	IRMPSNPALPKKLLN
0	QPQRTAPKPPISAPR
0	STPQTMRQAPKRPDA

molecular target: T4, Boi2, P39969; experiment: SPOT array; conditions: median of control spots 1161

SPOT intensity	Binder
2	IRMPSNPALPKKLLN
1	QPQRTAPKPPISAPR
1	STPQTMRQAPKRPDA

molecular target: T5, Bud14, P27637; experiment: SPOT array; conditions: median of control spots 956

SPOT intensity	Binder
1	IRMPSNPALPKKLLN
2	QPQRTAPKPPISAPR
0	STPQTMRQAPKRPDA

molecular target: T6, Bzz1-1, P38822; experiment: SPOT array; conditions: median of control spots 4446

SPOT intensity	Binder
0	IRMPSNPALPKKLLN
2	QPQRTAPKPPISAPR
0	STPQTMRQAPKRPDA

molecular target: T7, Bzz1-2, P38822; experiment: SPOT array; conditions: median of control spots 4538

SPOT intensity	Binder
2	IRMPSNPALPKKLLN
2	QPQRTAPKPPISAPR
2	STPQTMRQAPKRPDA

molecular target: T8, Cdc25, P04821; experiment: SPOT array; conditions: median of control spots 969

SPOT intensity	Binder
4	IRMPSNPALPKKLLN
3	QPQRTAPKPPISAPR
0	STPQTMRQAPKRPDA

molecular target: T9, Cyk3, Q07533; experiment: SPOT array; conditions: median of control spots 1451

SPOT intensity	Binder
0	IRMPSNPALPKKLLN
0	QPQRTAPKPPISAPR
1	STPQTMRQAPKRPDA

molecular target: T10, Fus1, P11710; experiment: SPOT array; conditions: median of control spots 1200

SPOT intensity	Binder
0	IRMPSNPALPKKLLN
0	QPQRTAPKPPISAPR
0	STPQTMRQAPKRPDA

molecular target: GST; experiment: SPOT array; conditions: median of control spots 978

SPOT intensity	Binder
0	IRMPSNPALPKKLLN
0	QPQRTAPKPPISAPR
1	STPQTMRQAPKRPDA

molecular target: T11, Hof1, Q05080; experiment: SPOT array; conditions: median of control spots 4086

SPOT intensity	Binder
6	IRMPSNPALPKKLLN
0	QPQRTAPKPPISAPR
0	STPQTMRQAPKRPDA

molecular target: T12, Hse1, P38753; experiment: SPOT array; conditions: median of control spots 1727

SPOT intensity	Binder
16	IRMPSNPALPKKLLN
0	QPQRTAPKPPISAPR
0	STPQTMRQAPKRPDA

molecular target: T13, Lsb1, P53281; experiment: SPOT array; conditions: median of control spots 388

SPOT intensity	Binder
47	IRMPSNPALPKKLLN
3	QPQRTAPKPPISAPR
24	STPQTMRQAPKRPDA

molecular target: T14, Lsb3, P43603; experiment: SPOT array; conditions: median of control spots 406

SPOT intensity	Binder
53	IRMPSNPALPKKLLN
2	QPQRTAPKPPISAPR
45	STPQTMRQAPKRPDA

molecular target: T15, Lsb4, P32793; experiment: SPOT array; conditions: median of control spots 397

SPOT intensity	Binder
56	IRMPSNPALPKKLLN
1	QPQRTAPKPPISAPR
33	STPQTMRQAPKRPDA

molecular target: Myo3, P36006; experiment: SPOT array; conditions: median of control spots 468

SPOT intensity	Binder
72	IRMPSNPALPKKLLN
294	QPQRTAPKPPISAPR
47	STPQTMRQAPKRPDA

molecular target: T16, Myo5, Q04439; experiment: SPOT array; conditions: median of control spots 471

SPOT intensity	Binder
81	IRMPSNPALPKKLLN
230	QPQRTAPKPPISAPR
47	STPQTMRQAPKRPDA

molecular target: T17, Nbp2, Q12163; experiment: SPOT array; conditions: median of control spots 357

SPOT intensity	Binder
15	IRMPSNPALPKKLLN
276	QPQRTAPKPPISAPR
53	STPQTMRQAPKRPDA

molecular target: T18, Pex13, P80667; experiment: SPOT array; conditions: median of control spots 1341

SPOT intensity	Binder
352	IRMPSNPALPKKLLN
44	QPQRTAPKPPISAPR
116	STPQTMRQAPKRPDA

molecular target: T19, Pin3, Q06449; experiment: SPOT array; conditions: median of control spots 2171

SPOT intensity	Binder
115	IRMPSNPALPKKLLN
7	QPQRTAPKPPISAPR
192	STPQTMRQAPKRPDA

molecular target: Rvs167, P39743; experiment: SPOT array; conditions: median of control spots 2707
Sequence (P39743 419-482): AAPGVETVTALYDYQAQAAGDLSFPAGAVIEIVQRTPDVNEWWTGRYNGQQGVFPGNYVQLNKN

SPOT intensity	Binder
0	IRMPSNPALPKKLLN
0	QPQRTAPKPPISAPR
0	STPQTMRQAPKRPDA

molecular target: Sho1, P40073; experiment: SPOT array; conditions: median of control spots 1148
Sequence (P40073 287-367): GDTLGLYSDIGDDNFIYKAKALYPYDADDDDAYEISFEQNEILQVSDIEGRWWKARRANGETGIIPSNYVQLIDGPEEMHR

SPOT intensity	Binder
79	IRMPSNPALPKKLLN
0	QPQRTAPKPPISAPR
4	STPQTMRQAPKRPDA

molecular target: T20, Sla1-2, P32790; experiment: SPOT array; conditions: median of control spots 712

SPOT intensity	Binder
18	IRMPSNPALPKKLLN
0	QPQRTAPKPPISAPR
2	STPQTMRQAPKRPDA

molecular target: T21, Sla1-3, P32790; experiment: SPOT array; conditions: median of control spots 5475

SPOT intensity	Binder
0	IRMPSNPALPKKLLN
9	QPQRTAPKPPISAPR
2	STPQTMRQAPKRPDA
